The target in this test is Ulp1^403-621-C580S, on CNBr-activated resin (S. cerevisiae) (UniProt Q02724). The test can be described thus: pull-down; Ulp1^403-621-C580S on CNBr-activated resin incubated with yeast whole cell extract, 2 h at 4 °C, PBSN buffer; anti-Smt3 Western blot.
Chain of UniProt Q02724 (Q02724 403-621 C580S): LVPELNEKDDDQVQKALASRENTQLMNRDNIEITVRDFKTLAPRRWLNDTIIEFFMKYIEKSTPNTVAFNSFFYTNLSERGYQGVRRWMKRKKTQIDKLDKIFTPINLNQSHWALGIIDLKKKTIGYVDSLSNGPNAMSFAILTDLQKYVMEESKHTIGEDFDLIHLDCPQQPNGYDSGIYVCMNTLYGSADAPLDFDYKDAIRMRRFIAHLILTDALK

“Smt3 (yeast SUMO), as endogenous SUMO conjugates in yeast cell extract (from UniProt Q12306 1-101) (natural protein)”: the percent of SUMO conjugates recovered on the resin worked out at 50%.
